Drawing on publication PMC12872464, this text covers ratio to parent and response (bacteria per field) for seven molecules.

Test [1] has as its target recombinant lectin domain of FimH with FLAG tag (rFimHLD-FLAG), P08191. Briefly: western blot quantification of rFimHLD-FLAG bound to rPPAP-HA. As to conditions: chain shown with the change; n = 3 biological replicates; parent: est. 1.0; read off a plot.
Test [2] addresses full-length FimH adhesin on live WT UPEC UTI89 bacteria, P08191. Briefly: binding array (rPPAP bound to glass slide, incubated with live bacteria). To be noted: chain shown with the change, n = 3 biological replicates.

recombinant lectin domain of FimH with FLAG tag (rFimHLD-FLAG), P08191, sequence (P08191 22-156): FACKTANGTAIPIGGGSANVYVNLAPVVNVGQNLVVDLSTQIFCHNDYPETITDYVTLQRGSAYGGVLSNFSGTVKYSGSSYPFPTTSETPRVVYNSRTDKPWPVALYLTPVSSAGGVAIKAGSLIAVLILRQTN
full-length FimH adhesin on live WT UPEC UTI89 bacteria, P08191, sequence (P08191 22-300): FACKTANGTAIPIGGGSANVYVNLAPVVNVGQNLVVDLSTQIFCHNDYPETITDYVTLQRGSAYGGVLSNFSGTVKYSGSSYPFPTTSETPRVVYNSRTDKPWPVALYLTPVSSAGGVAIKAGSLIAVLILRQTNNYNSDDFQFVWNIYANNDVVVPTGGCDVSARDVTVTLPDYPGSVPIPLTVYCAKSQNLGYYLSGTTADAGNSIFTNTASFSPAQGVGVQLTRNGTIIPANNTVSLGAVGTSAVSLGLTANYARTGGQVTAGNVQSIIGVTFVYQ

B1: HA-tagged PPAP recombinant protein, isoform 2 (membrane protein), wild type (rPPAP-HA WT), P15309-2 N94A; N333A (protein)
chain: MRAAPLLLARAASLSLGFLFLLFFWLDRSVLAKELKFVTLVFRHGDRSPIDTFPTDPIKESSWPQGFGQLTQLGMEQHYELGEYIRKRYRKFLAESYKHEQVYIRSTDVDRTLMSAMTNLAALFPPEGVSIWNPILLWQPIPVHTVPLSEDQLLYLPFRNCPRFQELESETLKSEEFQKRLHPYKDFIATLGKLSGLHGQDLFGIWSKVYDPLYCESVHNFTLPSWATEDTMTKLRELSELSLLSLYGIHKQKEKSRLQGGVLVNEILNHMKRATQIPSYKKLIMYSAHDTTVSGLQMALDVYNGLLPPYASCHLTELYFEKGEYFVEMYYRAETQHEPYPLMLPGCSPSCPLERFAELVGPVIPQDWSTECMTTNSHQGTEDSTD
As for B1, the ratio to parent in test [1] was 0.5.

B2: HA-tagged PPAP recombinant protein, isoform 2 (membrane protein), wild type (rPPAP-HA WT), P15309-2 N94A; N220A (protein)
chain: MRAAPLLLARAASLSLGFLFLLFFWLDRSVLAKELKFVTLVFRHGDRSPIDTFPTDPIKESSWPQGFGQLTQLGMEQHYELGEYIRKRYRKFLAESYKHEQVYIRSTDVDRTLMSAMTNLAALFPPEGVSIWNPILLWQPIPVHTVPLSEDQLLYLPFRNCPRFQELESETLKSEEFQKRLHPYKDFIATLGKLSGLHGQDLFGIWSKVYDPLYCESVHAFTLPSWATEDTMTKLRELSELSLLSLYGIHKQKEKSRLQGGVLVNEILNHMKRATQIPSYKKLIMYSAHDTTVSGLQMALDVYNGLLPPYASCHLTELYFEKGEYFVEMYYRNETQHEPYPLMLPGCSPSCPLERFAELVGPVIPQDWSTECMTTNSHQGTEDSTD
Regarding B2, the ratio to parent in test [1] turned out to be 0.53.

B3: HA-tagged PPAP recombinant protein, isoform 2 (membrane protein), wild type (rPPAP-HA WT), P15309-2 N94A; N220A; N333A (protein)
chain: KELKFVTLVFRHGDRSPIDTFPTDPIKESSWPQGFGQLTQLGMEQHYELGEYIRKRYRKFLAESYKHEQVYIRSTDVDRTLMSAMTNLAALFPPEGVSIWNPILLWQPIPVHTVPLSEDQLLYLPFRNCPRFQELESETLKSEEFQKRLHPYKDFIATLGKLSGLHGQDLFGIWSKVYDPLYCESVHAFTLPSWATEDTMTKLRELSELSLLSLYGIHKQKEKSRLQGGVLVNEILNHMKRATQIPSYKKLIMYSAHDTTVSGLQMALDVYNGLLPPYASCHLTELYFEKGEYFVEMYYRAETQHEPYPLMLPGCSPSCPLERFAELVGPVIPQDWSTECMTTNSHQVLKVIFAVAFCLISAVLMVLLFIHIRRGLCWQRESYGNI
For the molecule B3, the response (bacteria per field) came to 13 in test [2] (with D-mannose, parent: est. 18, read off a plot) and 19 in test [2] (without D-mannose, parent: est. 66, read off a plot). In test [1], the ratio to parent was 0.36.

B4: HA-tagged PPAP recombinant protein, isoform 2 (membrane protein), wild type (rPPAP-HA WT), P15309-2 N333A (protein)
chain: KELKFVTLVFRHGDRSPIDTFPTDPIKESSWPQGFGQLTQLGMEQHYELGEYIRKRYRKFLNESYKHEQVYIRSTDVDRTLMSAMTNLAALFPPEGVSIWNPILLWQPIPVHTVPLSEDQLLYLPFRNCPRFQELESETLKSEEFQKRLHPYKDFIATLGKLSGLHGQDLFGIWSKVYDPLYCESVHNFTLPSWATEDTMTKLRELSELSLLSLYGIHKQKEKSRLQGGVLVNEILNHMKRATQIPSYKKLIMYSAHDTTVSGLQMALDVYNGLLPPYASCHLTELYFEKGEYFVEMYYRAETQHEPYPLMLPGCSPSCPLERFAELVGPVIPQDWSTECMTTNSHQVLKVIFAVAFCLISAVLMVLLFIHIRRGLCWQRESYGNI
On to B4, for which the ratio to parent in test [1] was 0.6.

B5: HA-tagged PPAP recombinant protein, isoform 2 (membrane protein), wild type (rPPAP-HA WT), P15309-2 N94A (protein)
chain: KELKFVTLVFRHGDRSPIDTFPTDPIKESSWPQGFGQLTQLGMEQHYELGEYIRKRYRKFLAESYKHEQVYIRSTDVDRTLMSAMTNLAALFPPEGVSIWNPILLWQPIPVHTVPLSEDQLLYLPFRNCPRFQELESETLKSEEFQKRLHPYKDFIATLGKLSGLHGQDLFGIWSKVYDPLYCESVHNFTLPSWATEDTMTKLRELSELSLLSLYGIHKQKEKSRLQGGVLVNEILNHMKRATQIPSYKKLIMYSAHDTTVSGLQMALDVYNGLLPPYASCHLTELYFEKGEYFVEMYYRNETQHEPYPLMLPGCSPSCPLERFAELVGPVIPQDWSTECMTTNSHQVLKVIFAVAFCLISAVLMVLLFIHIRRGLCWQRESYGNI
B5: the ratio to parent in test [1] came out at 0.78.

B6: HA-tagged PPAP recombinant protein, isoform 2 (membrane protein), wild type (rPPAP-HA WT), P15309-2 N220A; N333A (protein)
chain: KELKFVTLVFRHGDRSPIDTFPTDPIKESSWPQGFGQLTQLGMEQHYELGEYIRKRYRKFLNESYKHEQVYIRSTDVDRTLMSAMTNLAALFPPEGVSIWNPILLWQPIPVHTVPLSEDQLLYLPFRNCPRFQELESETLKSEEFQKRLHPYKDFIATLGKLSGLHGQDLFGIWSKVYDPLYCESVHAFTLPSWATEDTMTKLRELSELSLLSLYGIHKQKEKSRLQGGVLVNEILNHMKRATQIPSYKKLIMYSAHDTTVSGLQMALDVYNGLLPPYASCHLTELYFEKGEYFVEMYYRAETQHEPYPLMLPGCSPSCPLERFAELVGPVIPQDWSTECMTTNSHQVLKVIFAVAFCLISAVLMVLLFIHIRRGLCWQRESYGNI
On to B6, for which, in test [1], the ratio to parent was 0.25.

B7: HA-tagged PPAP recombinant protein, isoform 2 (membrane protein), wild type (rPPAP-HA WT), P15309-2 N220A (protein)
chain: KELKFVTLVFRHGDRSPIDTFPTDPIKESSWPQGFGQLTQLGMEQHYELGEYIRKRYRKFLNESYKHEQVYIRSTDVDRTLMSAMTNLAALFPPEGVSIWNPILLWQPIPVHTVPLSEDQLLYLPFRNCPRFQELESETLKSEEFQKRLHPYKDFIATLGKLSGLHGQDLFGIWSKVYDPLYCESVHAFTLPSWATEDTMTKLRELSELSLLSLYGIHKQKEKSRLQGGVLVNEILNHMKRATQIPSYKKLIMYSAHDTTVSGLQMALDVYNGLLPPYASCHLTELYFEKGEYFVEMYYRNETQHEPYPLMLPGCSPSCPLERFAELVGPVIPQDWSTECMTTNSHQVLKVIFAVAFCLISAVLMVLLFIHIRRGLCWQRESYGNI
With B7, in test [1], the ratio to parent was 0.68.
